Article PMC7287080, “Distinct pre-initiation steps in human mitochondrial translation” (Nature Communications, 2020)

Molecular target: mitoribosomal protein uS12m (human (endogenous in HEK293T), UniProt O15235 30-138)
Assay: cryo-EM structure; recombinant mtIF2 (1 µM) preincubated with GDPNP (2.5 mM), added to the mtIF3-bound mtSSU eluate with fMet-tRNA (1 µM) and MT-CO2 mRNA (1 µM), 30 min at room temperature, buffer A (25 mM HEPES-KOH pH 7.5, 5.0 mM Mg(OAc)2, 100 mM KCl, 0.05% β-DDM)
Details: both partners purified

- binding result: binds
B1: recombinant human mtIF2 (amino acids 38-727) (natural protein)
chain: SSAYPVWTAQLCAWPWPTDVLTGAALSQYRLLVTKKEEGPWKSQLSSTKSKKVVEVWIGMTIEELARAMEKNTDYVYEALLNTDIDIDSLEADSHLDEVWIKEVITKAGMKLKWSKLKQDKVRKNKDAVRRPQADPALLTPRSPVVTIMGHVDHGKTTLLDKFRKTQVAAVETGGITQHIGAFLVSLPSGEKITFLDTPGHAAFSAMRARGAQVTDIVVLVVAADDGVMKQTVESIQHAKDAQVPIILAVNKCDKAEADPEKVKKELLAYDVVCEDYGGDVQAVPVSALTGDNLMALAEATVALAEMLELKADPNGPVEGTVIESFTDKGRGLVTTAIIQRGTLRKGSVLVAGKCWAKVRLMFDENGKTIDEAYPSMPVGITGWRDLPSAGEEILEVESEPRAREVVDWRKYEQEQEKGQEDLKIIEEKRKEHKEAHQKAREKYGHLLWKKRSILRFLERKEQIPLKPKEKRERDSNVLSVIIKGDVDGSVEAILNIIDTYDASHECELELVHFGVGDVSANDVNLAETFDGVIYGFNVNAGNVIQQSAAKKGVKIKLHKIIYRLVEDLQEELSSRLPCAVEEHPVGEASILATFSVTEGKKKVPVAGCRVQKGQLEKQKKFKLTRNGHVIWKGSLTSLKHHKDDISIVKTGMDCGLSLDEDNMEFQVGDRIVCYEEKQIQAKTSWDPGF
notes: mitochondrial translation initiation factor 2 (mtIF2), human, mature form, amino acids 38-727, codon-optimised construct in pET-24b; also called mtIF2-GDPNP; source: E. coli Rosetta 2, purified (His-Select Ni2+ resin, Superdex 200)
